Measurements reported in publication PMC6696043, “Aptamers in Education: Undergraduates Make Aptamers and Acquire 21st Century Skills Along the Way”.

Assays:
[1] = target: calf intestinal alkaline phosphatase (CIAP) (calf) (UniProt P19111); experiment: 32P-RNA binding assay; details: RNA 5 nM, triplicate; Selection buffer 20 mM HEPES pH 7.5, 150 mM NaCl, 5 mM MgCl2, room temperature; binding assay conditions not separately stated (refers to cited protocol)
[2] = target: T1, calf intestinal alkaline phosphatase (CIAP) (calf, UniProt P19111 20-506); experiment: 32P-RNA binding assay; Selection buffer 20 mM HEPES pH 7.5, 150 mM NaCl, 5 mM MgCl2, room temperature; binding assay conditions not separately stated (refers to cited protocol); details: protein: commercial; tags: biotinylated (Pierce 29339, 69 kDa); chain copies: 2; label: 32P; stem-loop, GGG/CCC closing stem
T1 sequence (P19111 20-506): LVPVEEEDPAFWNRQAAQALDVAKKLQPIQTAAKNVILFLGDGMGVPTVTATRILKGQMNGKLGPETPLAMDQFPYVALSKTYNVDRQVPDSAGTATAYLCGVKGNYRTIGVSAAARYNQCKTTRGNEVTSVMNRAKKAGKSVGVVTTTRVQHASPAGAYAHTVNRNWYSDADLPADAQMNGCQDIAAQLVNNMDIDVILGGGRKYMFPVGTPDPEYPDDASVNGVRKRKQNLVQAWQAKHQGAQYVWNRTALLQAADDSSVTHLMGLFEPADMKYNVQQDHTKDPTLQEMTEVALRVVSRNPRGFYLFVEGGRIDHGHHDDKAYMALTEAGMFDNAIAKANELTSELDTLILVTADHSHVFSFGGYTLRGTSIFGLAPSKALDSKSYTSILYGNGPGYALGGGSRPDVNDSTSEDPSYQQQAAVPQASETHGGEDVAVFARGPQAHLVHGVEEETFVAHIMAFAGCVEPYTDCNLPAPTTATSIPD

[3] = target: T2, human tissue-nonspecific alkaline phosphatase (human, UniProt P05186 18-501); experiment: 32P-RNA binding assay; up to 250 nM protein, single point; Selection buffer 20 mM HEPES pH 7.5, 150 mM NaCl, 5 mM MgCl2, room temperature; binding assay conditions not separately stated (refers to cited protocol); details: protein: recombinant; chain copies: 2; label: 32P; stem-loop, GGG/CCC closing stem
T2 sequence: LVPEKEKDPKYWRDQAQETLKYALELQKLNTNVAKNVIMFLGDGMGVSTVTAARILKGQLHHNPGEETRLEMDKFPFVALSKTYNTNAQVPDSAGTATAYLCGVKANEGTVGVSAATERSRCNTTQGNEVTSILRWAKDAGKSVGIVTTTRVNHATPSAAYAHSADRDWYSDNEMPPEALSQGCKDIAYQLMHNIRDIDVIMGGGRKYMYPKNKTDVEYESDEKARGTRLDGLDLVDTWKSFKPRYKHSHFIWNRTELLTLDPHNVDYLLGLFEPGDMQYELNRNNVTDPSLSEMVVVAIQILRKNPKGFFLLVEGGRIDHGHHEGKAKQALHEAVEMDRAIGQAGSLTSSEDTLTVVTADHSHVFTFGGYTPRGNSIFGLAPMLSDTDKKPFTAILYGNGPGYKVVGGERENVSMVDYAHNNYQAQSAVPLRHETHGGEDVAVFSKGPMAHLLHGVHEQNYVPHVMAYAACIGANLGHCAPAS

[4] = target: human intestinal alkaline phosphatase (human, UniProt P09923 20-503); experiment: as above; details: protein: recombinant; chain copies: 2; label: 32P; stem-loop, GGG/CCC closing stem
human intestinal alkaline phosphatase, sequence (P09923 20-503): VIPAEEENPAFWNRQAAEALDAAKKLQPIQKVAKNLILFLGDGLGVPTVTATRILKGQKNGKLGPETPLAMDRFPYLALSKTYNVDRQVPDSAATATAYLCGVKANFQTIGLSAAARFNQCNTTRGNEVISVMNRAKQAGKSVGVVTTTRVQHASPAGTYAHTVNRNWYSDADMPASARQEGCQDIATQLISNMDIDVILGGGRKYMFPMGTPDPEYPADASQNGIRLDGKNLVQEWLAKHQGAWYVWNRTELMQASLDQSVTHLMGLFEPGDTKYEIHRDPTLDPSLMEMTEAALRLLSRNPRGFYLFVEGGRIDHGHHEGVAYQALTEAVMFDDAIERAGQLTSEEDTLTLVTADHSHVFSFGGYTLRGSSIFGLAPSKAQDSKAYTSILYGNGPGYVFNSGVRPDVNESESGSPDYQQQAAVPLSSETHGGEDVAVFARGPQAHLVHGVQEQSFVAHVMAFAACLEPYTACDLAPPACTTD

[5] = target: T1, calf intestinal alkaline phosphatase …; experiment: 32P-RNA binding assay; RNA 5 nM, triplicate; Selection buffer 20 mM HEPES pH 7.5, 150 mM NaCl, 5 mM MgCl2, room temperature; binding assay conditions not separately stated (refers to cited protocol); details: protein: commercial, tags: biotinylated (Pierce 29339, 69 kDa), chain copies: 2, label: 32P
[6] = target: T1, calf intestinal alkaline phosphatase …; experiment: 32P-RNA bead binding assay; not above no-protein beads; prefers naked beads; Selection buffer 20 mM HEPES pH 7.5, 150 mM NaCl, 5 mM MgCl2, room temperature; binding assay conditions not separately stated (refers to cited protocol); details: protein: commercial; tags: biotinylated (Pierce 29339, 69 kDa); chain copies: 2; label: 32P
[7] = target: T1, calf intestinal alkaline phosphatase …; experiment: 32P-RNA bead binding assay; not above no-protein beads; Selection buffer 20 mM HEPES pH 7.5, 150 mM NaCl, 5 mM MgCl2, room temperature; binding assay conditions not separately stated (refers to cited protocol); details: protein: commercial; tags: biotinylated (Pierce 29339, 69 kDa); chain copies: 2; label: 32P

calf intestinal alkaline phosphatase (CIAP) (calf), sequence (P19111 20-506): as the sequence (P19111 20-506) above

GGGUUUACCUAGGUGUAGAUGCUUCWAUUGAUAUGUUAUAACUGAACUCAACAUAAGGAUAUGAUGUAUGAUCAAGUGACGUCUGAACUGCUUCGAA [aptamer clone 4-9]
Kd [1]: 9.4 nM

B1: minimized aptamer variant 3.1 (structured_RNA)
RNA: GGGUAGAUGCUGUAUAUAGCGAACUCAACAUAAGGUAUAAUUACAAUUUCUACCC
Kd [2]: 6.7 nM
binding result [3]: no binding
binding result [4]: no binding

B2: aptamer clone 4-3 (structured_RNA)
RNA: GGGUUUACCUAGGUGUAGAUGCUGUAUAUAGCGAACUCAACAUAAGGUAUAAUUACAAUUUCUAUACUUCUUCAAGUGACGUCUGAACUGCUUCGAA
Kd ([5]; VDH motif in loop): 5 nM

B3: aptamer clone 3-6 (structured_RNA)
RNA: GGGUUUACCUAGGUGUAGAUGCUCUGCCCUUCAGAUUUAUCGAUGACCGUUGAACUCAACAUAAGACCUUCCAAAGUGACGUCUGAACUGCUUCGAA
Kd ([5]; VDH motif in loop and stem): 10.8 nM

B4: clone c2-1 (structured_RNA)
RNA: GGGUUUACCUAGGUGUAGAUGCUGAUAGAUUUCCCCUGACUUAGGAGCUCAUUAGAUUUUUAUUGUGUGGGGCAAGUGACGUCUGAACUGCUUCGAA
binding result [6]: no binding

B5: clone c2-4 (structured_RNA)
RNA: GGGUUUACCUAGGUGUAGAUGCUUCUUCACUCCUUAUGAACACGUAGCGCUCAAUCAUCUCUAAUUAAUUCUCAAGUGACGUCUGAACUGCUUCGAA
binding result [7]: no binding
